Experimental data as given in article doi:10.1101/2022.03.11.483953, “Structure and regulation of the myotonic dystrophy kinase-related Cdc42-binding kinase” (bioRxiv, 2022).

T1: FITC-labeled CRIB peptide of C. elegans MRCK1 (residues 1543-1572) (C. elegans, UniProt O01583 1543-1572, fluorescein (FITC) label, position not stated)
T1 construct: MRCK1, C. elegans, CRIB motif, residues 1543-1572; also called CRIB motif peptide; fluorescein-labeled peptide
T1 peptide (looked up): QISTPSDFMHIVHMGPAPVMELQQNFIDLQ

B1: C. elegans MRCK1, full length (MRCK1^1-1592) (enzyme, UniProt O01583 1-1592, looked up)
chain: MAEPPPDDSAPVRLKTLENIYMDGPSKKPEALSFETLIDSLICLYDECCNSTLRKEKCIAEFVESVKTVISKAKKLRLSRDDFEVLKVIGKGAFGEVAVVRMRGVGEIYAMKILNKWEMVKRAETACFREERDVLVYGDRRWITNLHYAFQDEKNLYFVMDYYIGGDMLTLLSKFVDHIPESMAKFYIAEMVLAIDSLHRLGYVHRDVKPDNVLLDMQGHIRLADFGSCLRILADGSVASNVAVGTPDYISPEILRAMEDGRGRYGKECDWWSLGICMYEMLYGTTPFYSERLVDTYGKIMSHQDMLDFPDDEIDWVVSEEAKDLIRQLICSSDVRFGRNGLSDFQLHPFFEGIDWNTIRDSNPPYVPEVSSPEDTSNFDVDVCEDDFTPCLQETQPPRVLAAFTGNHLPFVGFSYTHGSLLSDARSLTDEIRAIAQRCQGDAELMEKSVDGFMVELENEKAELVQKLKEAQTIIAQHVAENPRSEEDRNYESTIAQLKDEIQILNKRLEDEALAQQQQKPKDEIVAESEKKLKELKERNKQLVMEKSEIQRELDNINDHLDQVLVEKATVVQQRDDMQAELADVGDSLLTEKDSVKRLQDEAEKAKKQVADFEEKLKEIETEKIALIKKQEEVTIEARKSVETDDHLSEEVVAAKNTIASLQATNEERETEIKKLKQRMDEERASHTAQSEQEMKQLEAHYERAQKMLQDNVEQMNVENRGLRDEIEKLSQQMAALPRGGLNEQQLHEIFNWVSEEKATREEMENLTRKITGEVESLKNNSPLTTSNYIQNTPSGWGSRRMNNVARKDGLDLQRQLQAEIDAKLKLKAELKNSQEQYLTSAARLDDTEKRMASLMREVAMLKQQKNIENSSDSAFSSTMGRGDLMISMNNDYEMSNSSLMRQEMISRQSTPSYENAILLHDHQVPKRVDDLRYKQKPMKTASGIFSPVSISAMERGHNFERMKIKTPTKCGHCTSILIGLDRQGLFCQSCQYACHVSCAERVSQSCPVPEEERRPLGIDPTRGVGTAYEGLVKTPRAGGVRKGWQTAYVVVCDFKLYLYDCTVDRQNKMQDVKNEIRLVLDMRDPDFTVCGVSEADVIHAQKGDIPKIFRVTTTQILNSSSEYSSSSKFYTLFMAETEEEKRKWVVALSELKTLLRRSKLADRKAFLVKEVFDVTTLPSIRVAQCCAIIDRSKIVIGFSDHGLYCIEISRQLLIPVGGEKENKQRCVETVEYDEAEQLLMMIVGPAKDRHVRIVPSAALDGRDLKWIKVNDTKGCHLLAVGTNNPGGRAGFFAVAFKKSVTIFQIDRSEKRHKKWKDLAMPGTPQSIAIFNGRLYVGFSHSFRSWSLVGVDSSPVGSGDASGAVLQHISLVNMEDTSLQFLNQQTSYEAKLIVNVPGSPDEYLLVFNMIGLYVNEMGRRSRLPEVMFPTQAKYFAYHEPYLCVFSENEVDIFNVTLAEWVQTINLRSAKPLSGDGILSTCLCNDSPIFVLLQNVLQDQDSIEVPVNLASGSTDGRKVTRRKFTFRTIGKDDRSASERRSHIQISTPSDFMHIVHMGPAPVMELQQNFIDLQSNHSHTSSDKDSLNRSVNND
notes: source: baculovirus-infected Sf9 insect cells, purified (HisTrap, TEV cleavage, HiTrap Q); not shown: His10, N-terminal, cleaved; StrepII, N-terminal, cleaved
B2: Cdc42^2-178 (C-terminally truncated Cdc42 lacking its geranylgeranylation motif) (domain or fragment)
chain: not shown
notes: Cdc42, residues 2-178, C-terminally truncated; Loaded with GDP or with GMPPNP (Dbs exchange factor, then size exclusion) before the titration; the two loaded states are told apart by the assay; The species may be human instead (P60953); also called Cdc42 (residues 2-178); source: E. coli, purified (GST beads, TEV cleavage, SD75 size exclusion); not shown: GST, N-terminal, cleaved

Assays:
[1] = target: the molecule itself; experiment: rotary shadowing electron microscopy; samples at 50 μg/ml in 100 mM ammonium acetate, 30% (v/v) glycerol, pH 7.4, sprayed on mica, coated with platinum and carbon
[2] = target: T1, FITC-labeled CRIB peptide of C. elegans …; experiment: fluorescence polarisation; fluorescence anisotropy; Cdc42^2-178 loaded with GMPPNP titrated into 100 nM fluorescein-labeled peptide; 20 °C, 20 mM Tris pH 8.0, 100 mM NaCl, 1 mM TCEP; one-site binding model; settings: both partners purified

Binder | stoichiometry N [1] | fold stronger than Cdc42 bound to GDP [2] [fold]
B1 | 2 | 
B2 |  | 5
